Test system: P. aeruginosa ATCC 19660
Assay: murine keratitis model, cytotoxic strain (C57BL/6 mice)
Format: in vivo
Conditions: for viable bacteria isolated, one mouse: only mouse with viable bacteria
Protocol: The inbred mice of C57BL/6 strain of both sexes in equivalent numbers were used for the research. 2-6 months old, adult female and adult male mice were purchased from the Vilnius University vivarium of laboratory animals. The animals throughout the period of the experiment were given standard chow and drinking water ad libitum. Animals were housed in the individual plastic cages in a 12 h light/dark cycle at 21-23° C. All regulated procedures on living animals were approved by The Lithuanian Ethics Committee of Biomedical Research (Protocol no. B1-442) and were carried out in accordance with the European Union legislation of OECD (directive 2010/63/EU). The experiments were carried out in Biological research center of Lithuanian University of Health Sciences.
For P. aeruginosa infection and keratitis induction the mice were anesthetized by Ketamine and Xylazine 90:9 mg/kg intraperitoneal injection. The cornea of the left eye of each mouse was visualized under a stereoscopic microscope, and three 1 mm scratches were made using a sterile 25 gauge needle. A 10 μL aliquot containing 4×10^6 cells of P. aeruginosa ATCC 19660 (cytotoxic strain) or PAO1 ATCC 15692 (invasive strain) was applied to the corneal surface. Depending on the experiment, the treatment was started 30 min or 6 h post infection. 10 μl aliquot containing 0.14 mg of tobramycin or 20 μg of S5-PmnH (both containing 0.5% hydroxypropyl methylcellulose (HPMC)) or PBS containing 0.5% HPMC was applied as one drop of substance to the each eye. HPMC is used as artificial tears and was used in order to thicken the tears film and prolong the presence of the applied product on the surface of the cornea. The treatment was continued for five days twice daily. Mice were euthanized by cervical dislocation 1, 3, 5 days post infection, and the eyeballs were collected and homogenized for viable bacteria count.
The eyes were examined and photographed with a dissection microscope equipped with a digital camera at 1, 3 and 5 dpi to monitor the disease progression. At 1, 3 and 5 dpi disease severity was visually graded by using an established corneal damage scale: 0, the pupil was partially or fully covered by clear or slight opacity; +1, the anterior segment was partially or fully covered by slight opacity; +2, the pupil was partially or fully covered by dense opacity; +3, the entire anterior segment was covered by dense opacity; and +4, corneal perforation^40.
Histopathology experiments were carried out at Lithuanian University of Health Sciences, Department of Veterinary Pathobiology of Veterinary Academy. One randomly chosen mice of each study group was used for histopathology experiments. Enucleated eyes were preserved in 10% formaldehyde. Eyes were paraffin-embedded, cut into 3-μm-thick sections, deparaffinised, rehydrated and used for preparation of hematoxylin/eosin stained samples.

[1] = treatment started 30 min post infection
[2] = treatment started 6 h post infection, 1 dpi

B1: S5-PmnH (protein)
chain: MSNDNEVPGSMVIVAQGPDDQYAYEVPPIDSAAVAGNMFGDLIQREIYLQKNIYYPVRSIFEQGTKEKKEINKKVSDQVDGLLKQITQGKREATRQERVDVMSAVLHKMESDLEGYKKTFTKGPFIDYEKQSSLSIYEAWVKIWEKNSWEERKKYPFQQLVRDELERAVAYYKQDSLSEAVKVLRQELNKQKALKEKEDLSQLERDYRTRKANLEMKVQSELDQAGSALPPLVSPTPEQWLERATRLVTQAIADKKQLQTTNNTLIKNSPTPLEKQKAIYNGELLVDEIASLQARLVKLNAETTRRRTEKELTPDEKAAYTDAVSFVSTANEQMLQKYGANLSKVAQDMQAEIAGKKVRSYAEAMATFEKISANPAMKLNALDTQAVVDALNALDKASFADNITRLGKAFGVVGKVVQAEAIREKTVSGFQTGDWKPLMLELEAMAVGTGAGILLATSMAFFFPVFASAAAGVVVVALMMAATAAYFDAAKVDEINNLILN
modifications: Chimeric S5-PmnH
[1]
  histopathology of infected treated eyes: Only weak oedema in the corneal stroma
  signs of disease (visual inspection, clinical score): No signs of disease were observed in majority of samples
Treatment started 30 min post infection, twice daily, 1, 3 or 5 dpi, 20 μg S5-PmnH or 0.14 mg tobramycin per eye
  viable bacteria isolated from infected eyes: no viable P. aeruginosa were isolated
Treatment started 6 h post infection, 1 and 3 dpi, two S5-PmnH-treated and one tobramycin-treated mice
  clinical score evaluation: Only mild disease signs were observed
[2]
  histopathology of infected treated eyes: signs of acute inflammation of cornea
  viable bacteria isolated, one mouse: 3.6 log10 CFU/cornea
Treatment started 6 h post infection, 3 and 5 dpi
  histopathology of infected treated eyes: no marked aberrations
Treatment started 6 h post infection, 3 dpi
  viable bacteria isolated, one mouse: 5 log10 CFU/cornea
Treatment started 6 h post infection, 5 dpi
  clinical score evaluation: all corneas were completely clear
Treatment started 6 h post infection, 5 dpi, three mice
  viable bacteria isolated: No viable bacteria were isolated

— US20250188133A1, “CHIMERIC BACTERIOCINS AND METHOD FOR THE CONTROL OF PSEUDOMONAS” (priority 2022, published 2025)
